Patent publication US11306156
One block for each substance: values may come before it.

Tests used:
[1] = molecular target: D3H44 light chain Q124R_Q160K_T178R, N-terminal HA or FLAG tag; experiment: LCCA, SPR of light chain tags, L1:L2 DNA 1:3 norm. to 1:1; other light chain m16
[2] = molecular target: D3H44 light chain Q124R, N-terminal HA or FLAG tag; experiment: LCCA, SPR of light chain tags, L1:L2 DNA 1:3 norm. to 1:1; other light chain m18
[3] = molecular target: D3H44 light chain Q124R, N-terminal HA or FLAG tag; experiment: LCCA, SPR of light chain tags, L1:L2 DNA 1:3 norm. to 1:1; other light chain m28
[4] = molecular target: D3H44 light chain Q124R_Q160K_T178R, N-terminal HA or FLAG tag; experiment: LCCA, SPR of light chain tags, L1:L2 DNA 1:3 norm. to 1:1; other light chain m27
[5] = molecular target: D3H44 light chain Q124E_V133D, N-terminal HA or FLAG tag; experiment: LCCA, SPR of light chain tags, L1:L2 DNA 1:9 norm. to 1:1; other light chain m24
[6] = molecular target: D3H44 light chain Q124R, N-terminal HA or FLAG tag; experiment: LCCA, SPR of light chain tags, L1:L2 DNA 1:9 norm. to 1:1; other light chain m28
[7] = molecular target: D3H44 light chain Q124R_Q160K_T178R, N-terminal HA or FLAG tag; experiment: LCCA, SPR of light chain tags, L1:L2 DNA 1:9 norm. to 1:1; other light chain m27
[8] = molecular target: D3H44 light chain Q124E_V133D_S176L, N-terminal HA or FLAG tag; experiment: LCCA, SPR of light chain tags, L1:L2 DNA 1:9 norm. to 1:1; other light chain m17
[9] = molecular target: D3H44 light chain Q124R_Q160K_T178R, N-terminal HA or FLAG tag; experiment: LCCA, SPR of light chain tags, L1:L2 DNA 1:3 norm. to 1:1; other light chain m15
[10] = molecular target: D3H44 light chain Q124E_V133D, N-terminal HA or FLAG tag; experiment: LCCA, SPR of light chain tags, L1:L2 DNA 1:3 norm. to 1:1; other light chain m24
[11] = molecular target: D3H44 light chain Q124E_V133E, N-terminal HA or FLAG tag; experiment: as above
[12] = molecular target: D3H44 light chain Q124E_S131T_T178Y_T180E, N-terminal HA or FLAG tag; experiment: LCCA, SPR of light chain tags, L1:L2 DNA 1:3 norm. to 1:1; other light chain m17
[13] = molecular target: D3H44 light chain Q124E_V133D_S176L, N-terminal HA or FLAG tag; experiment: as above
[14] = molecular target: D3H44 light chain Q124E_S176L_T180E, N-terminal HA or FLAG tag; experiment: as above
[15] = molecular target: tissue factor (TF) antigen (UniProt P13726); experiment: SPR; Fab captured by anti-His, TF as analyte; LCCA set 9375
[16] = molecular target: tissue factor (TF) antigen (UniProt P13726); experiment: SPR; Fab captured by anti-His, TF as analyte; LCCA set 9374
[17] = molecular target: D3H44 Fab heavy chain L143E_K145T, C-terminal ABD2-His6 tag; experiment: LCCA: heavy chain co-expressed with two light chains, SPR detection of light chain tags; L1:L2 DNA 1:3, normalized to 1:1; competing light chain m11
[18] = molecular target: D3H44 Fab heavy chain Q179K, C-terminal ABD2-His6 tag; experiment: as above
[19] = molecular target: tissue factor (TF) antigen (UniProt P13726); experiment: SPR; Fab captured by anti-His, TF as analyte; LCCA set 9104; estimated from the Fab differing only in L chain tag
[20] = molecular target: tissue factor (TF) antigen (UniProt P13726); experiment: SPR; Fab captured by anti-His, TF as analyte; LCCA set 9347
[21] = molecular target: tissue factor (TF) antigen (UniProt P13726); experiment: SPR; Fab captured by anti-His, TF as analyte; LCCA set 9813
[22] = molecular target: tissue factor (TF) antigen (UniProt P13726); experiment: SPR; reference wild-type D3H44 Fab; * estimated value
[23] = molecular target: tissue factor (TF) antigen (UniProt P13726); experiment: SPR, Fab captured by anti-His, TF as analyte; * estimated from Fab differing only in L chain tag
[24] = molecular target: tissue factor (TF) antigen (UniProt P13726); experiment: SPR; Fab captured by anti-His, TF as analyte; LCCA set 9814
[25] = molecular target: D3H44 Fab heavy chain L143E_K145T_S188L, C-terminal ABD2-His6 tag; experiment: LCCA: heavy chain co-expressed with two light chains, SPR detection of light chain tags; L1:L2 DNA 1:3, normalized to 1:1; competing light chain m11
[26] = molecular target: D3H44 Fab heavy chain S186K, C-terminal ABD2-His6 tag; experiment: as above
[27] = molecular target: tissue factor (TF) antigen (UniProt P13726); experiment: SPR; Fab captured by anti-His, TF as analyte; LCCA set 9116
[28] = molecular target: D3H44 light chain Q124R_Q160K_T178R, N-terminal HA or FLAG tag; experiment: LCCA, SPR of light chain tags, L1:L2 DNA 1:3 norm. to 1:1; other light chain m21
[29] = molecular target: D3H44 light chain Q124R_T178R, N-terminal HA or FLAG tag; experiment: LCCA, SPR of light chain tags, L1:L2 DNA 1:3 norm. to 1:1; other light chain m20
[30] = molecular target: D3H44 light chain Q124R_Q160K_T178R, N-terminal HA or FLAG tag; experiment: LCCA, SPR of light chain tags, L1:L2 DNA 1:3 norm. to 1:1; other light chain m23
[31] = molecular target: D3H44 light chain Q124R_T178R, N-terminal HA or FLAG tag; experiment: LCCA, SPR of light chain tags, L1:L2 DNA 1:3 norm. to 1:1; other light chain m15
[32] = molecular target: D3H44 light chain Q124E_S131T_T178F_T180E, N-terminal HA or FLAG tag; experiment: LCCA, SPR of light chain tags, L1:L2 DNA 1:3 norm. to 1:1; other light chain m14
[33] = molecular target: D3H44 light chain Q124E_S131T_T178Y_T180E, N-terminal HA or FLAG tag; experiment: as above
[34] = molecular target: D3H44 light chain Q124E_T178E_T180E, N-terminal HA or FLAG tag; experiment: LCCA, SPR of light chain tags, L1:L2 DNA 1:3 norm. to 1:1; other light chain m17
[35] = molecular target: D3H44 light chain Q124E_Q160E_T178E, N-terminal HA or FLAG tag; experiment: as above
[36] = molecular target: tissue factor (TF) antigen (UniProt P13726); experiment: SPR, Fab captured on anti-penta His, TF injected; * estimated value taken from a Fab differing only in the L chain tag

H1L1:H1L2 normalized median ratio [1]: 57%
H1L1:H1L2 normalized median scalar value ln(r1/f1) [1]: 0.28
H1L1:H1L2 normalized median ratio [2]: 69%
H1L1:H1L2 normalized median scalar value ln(r1/f1) [2]: 0.81
H1L1:H1L2 normalized median ratio [3]: 84%
H1L1:H1L2 normalized median scalar value ln(r1/f1) [3]: 1.63
H1L1:H1L2 normalized median ratio [4]: 77%
H1L1:H1L2 normalized median scalar value ln(r1/f1) [4]: 1.22
H1L1:H1L2 normalized median ratio [5]: 21%
H1L1:H1L2 normalized median ratio [6]: 79%
H1L1:H1L2 normalized median scalar value ln(r1/f1) [6]: 1.32
H1L1:H1L2 normalized median ratio [7]: 76%
H1L1:H1L2 normalized median scalar value ln(r1/f1) [7]: 4
H1L1:H1L2 normalized median ratio [8]: 24%
H1L1:H1L2 normalized median ratio [9]: 74%
H1L1:H1L2 normalized median scalar value ln(r1/f1) [9]: 1.03
H1L1:H1L2 normalized median ratio [10]: 16%
H1L1:H1L2 normalized median ratio [11]: 31%
H1L1:H1L2 normalized median ratio [12]: 26%
H1L1:H1L2 normalized median ratio [13]: 23%
H1L1:H1L2 normalized median ratio [14]: 43%
Substance: D3H44 Fab heavy chain L143E_K145T_S188L, ABD2-His6 tagged

Change in KD with respect to wild type (-(log(KD design) - log(KD wt))) [15]: -0.16
Kd [15]: 0.23 nM
Change in KD with respect to wild type (-(log(KD design) - log(KD wt))) [16]: -0.16
Kd [16]: 0.23 nM
Substance: D3H44 Fab heterodimer, H L124R_H172T / L V133G_N137K_S174R_S176D (H1L1 Fab of LCCA sets 9374, 9375)

H1L1:H1L2 normalized median ratio [17]: 53%
H2L2:H2L1 normalized median ratio [18]: 98%
Substance: D3H44 light chain S131E, N-terminal HA or FLAG tag

Change in KD with respect to wild type (-(log(KD design) - log(KD wt))) [19]: -0.01
Kd [19]: 0.16 nM
Substance: D3H44 Fab heterodimer, H L124E / L S131T_V133G_S176R_T178Y (H1L1 Fab of LCCA set 9104)

Change in KD with respect to wild type (-(log(KD design) - log(KD wt))) [20]: -0.16
Kd [20]: 0.23 nM
Substance: D3H44 Fab heterodimer, H L124R_A125R_H172T / L V133G_N137K_S174R_S176D (H1L1 Fab of LCCA set 9347)

Change in KD with respect to wild type (-(log(KD design) - log(KD wt))) [21]: -0.05
Kd [21]: 0.18 nM
Substance: D3H44 Fab heterodimer, H Q39E_K145T_H172R_Q179E / L Q38R_S131K (H1L1 Fab of LCCA set 9813)

Change in KD of h1|1 Fab heterodimer with respect to wild type (-(log(KD design) - log(KD wt))) [22]: -0.07
Kd [23]: 0.18 nM
Substance: D3H44 Fab heterodimer, heavy L124E_L143E_K145T / light Q124K_V133G_S176R_T178R

Change in KD of h1|1 Fab heterodimer with respect to wild type (-(log(KD design) - log(KD wt))) [22]: -0.12
Kd [23]: 0.21 nM
Substance: D3H44 Fab heterodimer, heavy L124E_L143E_K145T / light Q124K_V133G_S176R_T178K

Change in KD with respect to wild type (-(log(KD design) - log(KD wt))) [24]: -0.01
Kd [24]: 0.16 nM
Substance: D3H44 Fab heterodimer, H Q39E_K145T_Q179E / L Q38R_S131K (H1L1 Fab of LCCA set 9814)

H2L2:H2L1 normalized median ratio [18]: 97%
H1L1:H1L2 normalized median ratio [25]: 43%
H2L2:H2L1 normalized median ratio [26]: 97%
Substance: D3H44 light chain Q124E_S176L_T180E, N-terminal HA or FLAG tag

Change in KD with respect to wild type (-(log(KD design) - log(KD wt))) [27]: -0.02
Kd [27]: 0.16 nM
Substance: D3H44 Fab heterodimer, H L124E_A139W / L F116A_V133G_L135V_S176R (H1L1 Fab of LCCA set 9116)

H2L2:H2L1 normalized median ratio [28]: 6%
H2L2:H2L1 normalized median ratio [29]: 6%
H2L2:H2L1 normalized median ratio [30]: 2%
H2L2:H2L1 normalized median ratio [31]: 7%
H2L2:H2L1 normalized median ratio [9]: 5%
H2L2:H2L1 normalized median ratio [32]: 94%
H2L2:H2L1 normalized median ratio [33]: 93%
H2L2:H2L1 normalized median ratio [34]: 94%
H2L2:H2L1 normalized median ratio [12]: 95%
H2L2:H2L1 normalized median ratio [35]: 98%
Substance: D3H44 Fab heavy chain Q179K, ABD2-His6 tagged

Change in KD with respect to wild type (-(log(KD design) - log(KD wt))) [36]: -0.12
Kd [36]: 0.21 nM
Substance: D3H44 Fab heterodimer H L124E_L143E_K145T / L Q124K_V133G_S176R_T178K (H1L1 Fab of LCCA Set # 9298)
